How the values were obtained:
[1] = system: PC-3 cells; assay: In vitro cell viability assay (CellTiter Glo), PC-3 (PSMA-negative control); format: cell-based; conditions: Example 16; PSMA-negative PC-3 (negative control), 96 h
Description: Loss of tumour cell viability following treatment with cytotoxic drugs or ADCs in vitro can be measured by growing cell lines in the presence of increasing concentrations of drugs or ADCs and quantifying the loss of proliferation or metabolic activity using CellTiter Glo® Luminescence reagent (Promega Corp. Technical Bulletin TB288; Lewis Phillips G. D, Cancer Res 2008; 68:9280-9290). The protocol describes cell seeding, drug treatment and determination of the cell viability in reference to untreated cells based on ATP synthesis, which is directly related to the number of cells present in the well.
PSMA-positive LNCaP (clone FGC) and C4-2 cells, as well as PSMA-negative PC-3 cells were detached with TrypLE and resuspended in complete medium. Cells were counted using disposable Neubauer counting chambers and cell density adjusted to 10×10^4 cells/mL for LNCaP, 2×10^4 cells/mL for C4-2 and 1×10^4 cells/mL for PC-3 respectively. […]
The cell viability assay was carried out using the Cell-Titer Glo® Luminescence reagent, as described by the manufacturer's instructions, (Promega Corp. Technical Bulletin TB288; Lewis Phillips G. D, Cancer Res 2008; 68:9280-9290). Luminescence was recorded using a plate reader (e.g. Molecular Devices Spectramax M3 plate reader), and data subsequently analysed using a four parameter non-linear regression model. […]

[2] = Heat stress test with SEC analysis of aggregation; format: physicochemical
Protocol: Antibody samples (0.5 mg/mL in PBS) were incubated at 75° C. for 30 min followed by incubation in an ice-bath for 5 min prior to being analysed for their extent of aggregation. Analysis of antibody solutions was carried out by Size Exclusion Chromatography (SEC) and by turbidity measurements.
SEC was performed using a TOSOH Bioscience TSK gel Super SW 3000 column. UV absorbance at 280 nm was monitored during an isocratic elution with a 0.2 M Potassium phosphate buffer, pH 6.8 (0.2 M potassium chloride and 15% isopropanol). The elution times and number of peaks indicate whether the sample contains aggregated, degraded or native antibody. The % area under the curve (Abs280) was used to determine the quantity of each species present in the SEC analysis.

[3] = Fluorescence-based thermal-shift assay (Sypro Orange); format: physicochemical
Protocol: Antibody was diluted to 1.5 mg/mL with DPBS, pH 7.1-7.5, and the concentration determined by measuring OD at 280 nm using a Nanodrop instrument. SEC analysis was carried out prior to thermal-shift analysis to confirm that over 99% of each antibody was present in their native form.
An RT-PCR instrument (StepOnePlus, Applied Biosystems) was set-up for a fluorescence-based thermal-shift assay using Sypro Orange dye as a fluorescent reporter. The assay was set-up in a PCR 96 well plate with five replicates per antibody sample and a final reaction volume of 20 μL per well. 13.5 μL of DPBS was pipetted in each well followed by the addition of 4 μL of antibody. […] Fluorescence data was collected throughout the temperature ramp, using an excitation filter at 470 nm and emission filter at 610 nm. […] The melting curves generated by the instrument software during the thermal unfolding of the antibodies result from the plotting of fluorescence vs. temperature. The melting temperature (Tm), is the temperature at which half of the antibody molecules are unfolded, (indicated by a 50% increase in fluorescence), and can be determined from the inflection point of the melting curve. The Tms are conventionally calculated by plotting a derivative plot. This is the change in fluorescence divided by the […] (the change rate) plotted on the Y-axis versus temperature on the X-axis. […]

[4] = post stress test: 0.5 mg/mL in PBS, 75° C. for 30 min, then ice-bath 5 min, SEC

Molecule | IC50 [1] [nM] | Ab in aggregated form (%) [2, 4] [%] | Ab in native conformation (%) [2, 4] [%] | stability in heat stress SEC analysis (in words) ([2]; propensity to aggregate upon heating and cooling) | Tm1 (° C.) ([3]; first transition peak: unfolding of the CH2 and Fab domains) [°C] | Tm2 (° C.) ([3]; second transition peak: unfolding of the CH3 domain) [°C]
ADC 34 (conjugate, non-natural residues) heavy: QVQLVESGGGVVQPGRSLRLSCAASGFTFSNYVMHWVRQAPGKGLEWVAIIWYDGSNKYYADSVKGRFTISRDNSKNTLYLQMNSLRAEDTAVYYCAGGYNWNYEYHYYGMDVWGQGTTVTVSS light: DIQMTQSPSSLSASVGDRVTITCRASQGITNYLAWFQQKPGKAPKSLIYAASSLQSGVPSKFSGSGSGTDFSLTISSLQPEDFATYYCQQYNSYPITFGQGTRLEIK | > 50 | – | – | – | – | –
AB-P2: prior art anti-PSMA antibody, heavy and light chain SEQ ID No 37 and 38 (antibody, V domains shown) VH: MELGLRWVLLVALLRGVQCQVQLVESGGGVVQPGRSLRLSCAASGFTFSNYVMHWVRQAPGKGLEWVAIIWYDGSNKYYADSVKGRFTISRDNSKNTLYLQMNSLRAEDTAVYYCAGGYNWNYEYHYYGMDVWGQGTTVTVSS VL: MRVPAQLLGLLLLCFPGARCDIQMTQSPSSLSASVGDRVTITCRASQGITNYLAWFQQKPGKAPKSLIYAASSLQSGVPSKFSGSGSGTDFSLTISSLQPEDFATYYCQQYNSYPITFGQGTRLEIK | – | 100 | 0 | less stable than AB-03 | 68.9 ± 0.1 | 75.2 ± 0.1

From patent US11485792B2, “Antibodies, uses thereof and conjugates thereof” (Polytherics Limited, priority 2016, dated 2022)
